The source of these data is PMC3518592 (Structure (London, England : 1993), 2012).

As usually defined, the Kd is the constant that tells how readily two partners part at equilibrium. Higher therefore signals weaker binding. As a reminder, the stoichiometry N is a count of units in the complex or per binding partner.

In assay [1] the target is T1, ubiquitin (D77) (UniProt P0CG48 1-76, D77). Briefly: NMR titration.
Assay [2] deals with T1, ubiquitin (D77). Briefly: ITC.
Assay [3] concerns the target T1, ubiquitin (D77). Briefly: ITC. This is another data set of the same source. A general note: In ITC the heat of successive injections is recorded.

B1: gp78CUE domain (453–504) (domain or fragment, human, UniProt Q9UKV5 453-504, looked up)
chain: SNSQLNAMAHQIQEMFPQVPYHLVLQDLQLTRSVEITTDNILEGRIQVPFPT
In the assay with ubiquitin (D77) [1], B1 showed a Kd of 13.6 ± 12 µM. Besides, in the assay with ubiquitin (D77) [2], the dH was -3.418 ± 0.0239 kcal/mol and the “stoichiometry N” value was 0.91. In addition, binding with ubiquitin (D77) [3] was characterised by a dissociation constant (Kd) of 12.8 ± 0.7 µM.
